From PMC10168401 (bioRxiv, 2023)

Biological target: SARS-CoV-2 spike receptor-binding domain (RBD), wild type, residues 333-529 (SARS-CoV-2 Wuhan-Hu-1 (wild type), UniProt P0DTC2)
Assay: crystal structure

B1: CC25.56 Fab with the […] elbow variant (for crystallization) (Fab, V domains shown)
VH: EVQLVQSGAEVKKPGESLKISCKGSGYTFTRHWIGWVRQMPGKGLEWMGVIYPGDSDTRYSPSFQGQVTVSADKSISTAYLQWSSLKASDTAMYFCARGGIAVASGAFDIWGQGTMVTVFN
VL: QSALTQPPSVSVAPGKTARITCGGNNIGSKSVHWYQQKAGQAPVVVIYYPSDRPSGIPERFSGSNSENTATLTISGVEAGDEADYYCQLWDTNSDHWVFGGGTKLTVL
**Q.** Does B1 bind?
**A.** Result: binds

B2: CC25.4 Fab with the VSRRLP elbow variant (for crystallization) (Fab, V domains shown)
VH: QVQLVQSGAEVKKPGASVKVSCKASGYTFTDYFLHWVRQAPGQGLEWMGWINPDSGGTNYAQRFQGRVTMTRDTSISTAYMEVSRLRSDDTAVYYCARDNERYQMQNYYHYYGMDVWGQGTTVTVVS
VL: not shown
**Q.** Does B2 bind?
**A.** Result: binds

B3: CC25.43 Fab with the […] elbow mutation and a shortened kappa FG loop (for crystallization) (Fab, V domains shown)
VH: EVQLVESGGGLVQPGGSLKLSCSASGFTLSDSAMHWVRQASGKGLEWVGRISSNVNNDATVYAASLKGRFTISRDESKNMAYLQMNSLKNEDTAVYYCTVVPVLEYYQYGMDVWGQGTTVTIFN
VL: DIQLTQSPSTLSASVGDRVIITCRASQSISTWLAWYQQRPGQAPKLLIYKASILQSGVPPRFSGSGSGTDFTLTISRLQPDDFATYYCQQYDSDSQPLTFGGGTKLEIK
**Q.** Does B3 bind?
**A.** Result: binds
